This experiment deals with T1, polypeptide 10 (human).
T1 construct: The empty single-chain polypeptide as secreted by WEHI-231 cells, about 50 kD; also called MHC-derived polypeptide; single continuous amino acid chain 12
Kind of experiment: inferred from peptide-dependent multimer staining of TCR-expressing Jurkat76 cells (flow cytometry). (In flow cytometry, cells or beads pass a laser one at a time.)

T1 sequence (chain, as listed by the source limits assumed): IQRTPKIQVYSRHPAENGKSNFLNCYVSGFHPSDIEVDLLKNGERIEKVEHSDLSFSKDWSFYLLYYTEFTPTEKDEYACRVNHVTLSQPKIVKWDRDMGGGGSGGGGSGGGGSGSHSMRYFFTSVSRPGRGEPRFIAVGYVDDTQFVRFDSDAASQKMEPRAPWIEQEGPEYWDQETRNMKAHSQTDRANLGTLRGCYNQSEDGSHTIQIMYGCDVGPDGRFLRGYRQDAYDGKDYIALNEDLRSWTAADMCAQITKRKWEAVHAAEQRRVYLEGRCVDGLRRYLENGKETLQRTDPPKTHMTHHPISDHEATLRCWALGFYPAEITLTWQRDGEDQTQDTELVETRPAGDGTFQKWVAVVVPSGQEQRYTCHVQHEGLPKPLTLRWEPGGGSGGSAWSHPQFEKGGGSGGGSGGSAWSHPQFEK

As for LTDLGQNLLY [oligopeptide 26], the binding result was “binds”.

The values above are taken from patent publication EP4484441A1 (Eberhard-Karls-Universität Tübingen, dated 2025).
